Molecular target: T1, His6–GFP–POU2F3 (UniProt Q9UKI9 1-436)
T1 sequence (looked up): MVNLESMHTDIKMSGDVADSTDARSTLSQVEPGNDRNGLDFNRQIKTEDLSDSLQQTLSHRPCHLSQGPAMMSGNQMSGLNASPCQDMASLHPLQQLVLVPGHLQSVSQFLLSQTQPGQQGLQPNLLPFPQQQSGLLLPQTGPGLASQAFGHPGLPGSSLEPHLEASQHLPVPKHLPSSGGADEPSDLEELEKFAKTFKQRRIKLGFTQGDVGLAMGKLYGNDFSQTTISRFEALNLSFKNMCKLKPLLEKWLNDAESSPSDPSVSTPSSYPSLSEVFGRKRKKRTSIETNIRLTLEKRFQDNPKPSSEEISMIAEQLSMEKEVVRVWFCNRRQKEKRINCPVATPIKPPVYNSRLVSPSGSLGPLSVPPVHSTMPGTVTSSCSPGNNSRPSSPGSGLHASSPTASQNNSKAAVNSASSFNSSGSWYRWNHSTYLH
Experiment: SEC

B1: Strep2SUMO–OCA-B (natural protein, UniProt Q16633 1-256, looked up)
chain: MLWQKPTAPEQAPAPARPYQGVRVKEPVKELLRRKRGHASSGAAPAPTAVVLPHQPLATYTTVGPSCLDMEGSVSAVTEEAALCAGWLSQPTPATLQPLAPWTPYTEYVPHEAVSCPYSADMYVQPVCPSYTVVGPSSVLTYASPPLITNVTTRSSATPAVGPPLEGPEHQAPLTYFPWPQPLSTLPTSTLQYQPPAPALPGPQFVQLPISIPEPVLQDMEDPRRAASSLTIDKLLLEEEDSDAYALNHTLSVEGF
B1: binds.
